Test results from patent US20220257704A1, “COMBINATION OF CHEMOTHERAPY WITH RECOMBINANT S. ROLFSII LECTIN” (Unichem Laboratories Ltd, priority 2018, published 2022).
“And” between values parts separate entries of the source, which are not always exact repeats. Identical values can stand only once.

How the values were obtained:
Test in all cases: MTT cytotoxicity assay, 48 h, alone and in combination (IC50 and Combination Index)
Format in all cases: cell-based
[1] = tested on: PANC-1 cell line
Procedure: The cytotoxic effect on each combination was determined by MTT assay.
(§1) Combination Index (CI) values were determined for each drug concentration combination. The CI values were calculated based on the IC50 values using the formula as given in below.

[2] = tested on: MDA-MB-231 cell line
Procedure: (§2) The cell were kept in contact with the recombinant lectin of SEQ ID NO: 1 and the chemotherapy agent for 48 h and the cytotoxic effect (percentage cytotoxicity) was measured. The cytotoxic effect was determined by well-known colorimetric MTT assay (Mossman, T. 1983 Rapid colorimetric assay for cellular growth and survival: application to proliferation and cytotoxicity assays Journal of Immunological Methods, volume 65, pages 55-63) for assessing cell metabolic activity.
(§3) Based on percentage cytotoxicity data, IC50 values were determined using the software GraphPad Prism version 4.01.
as §1
A study was performed to determine the effect of the concentration of the recombinant lectin represented by SEQ ID NO: 1 on the IC50 of Paclitaxel for cytotoxicity in MDA-MB-231 cells. Conversely the effect of the concentration of Paclitaxel on the IC50 of the recombinant lectin represented by SEQ ID NO: 1.
Similarly another study was performed for Carboplatin in combination with the recombinant lectin of SEQ ID NO: 1.
In a further study, MDA-MB-231 cells were treated with Paclitaxel (0.001 nM-10 nM) in combination with SEQ ID NO: 1(2.5 μg/mL-80 μg/mL) for 48 h. Similarly another set of cells were treated with Carboplatin (10 μM-1000 μM) in combination with SEQ ID NO: 1 (2.5 μg/mL-80 μg/mL).

[3] = tested on: KB cell line
Procedure: A study was performed to determine the effect of the concentration of the recombinant lectin represented by SEQ ID NO: 1 on the IC50 of5-FU for cytotoxicity in KB cells.
Similarly another study was performed for Cisplatin in combination with the recombinant lectin of SEQ ID NO: 1.
Similarly another set of cells were treated with Cisplatin(0.1 μM to 1.5 μM)in combination with SEQ ID NO: 1(5.0 μg/mL-90 μg/mL).

[4] = tested on: HT-29 cell line
[5] = tested on: PA-1 cell line
Procedure: In a further study, PA-1 cells were treated with Cisplatin(0.01 μM-5 μM) in combination with SEQ ID NO: 1(1 μg/mL-20 μg/mL) for 48 h. Similarly another set of cells were treated with Paclitaxel (0.01 nM-5 nM) in combination with SEQ ID NO: 1 (1 μg/mL-20 μg/mL).

[6] = tested on: T24 cell line
Procedure: as §2, §3, §1
A study was performed to determine the effect of the concentration of the recombinant lectin represented by SEQ ID NO: 1 on the IC50 of Cisplatin for cytotoxicity in T24 cells. Conversely the effect of the concentration of Cisplatin on the IC50 of the recombinant lectin represented by SEQ ID NO: 1.
Similarly another study was performed for Gemcitabine in combination with the recombinant lectin of SEQ ID NO: 1.
This was performed using the same techniques as in Example 1-1.
In a further study, T24 cells were treated with Cisplatin (1 μM-500 μM) in combination with SEQ ID NO: 1(2.5 μg/mL-80 μg/mL) for 48 h. Similarly another set of cells were treated with Gemcitabine (1 μM-300 μM) in combination with SEQ ID NO: 1 (2.5 μg/mL-80 μg/mL). Combination Index values were determined for each drug combination and resultant antagonistic, additive or synergistic effect was determined, as described in Example 1-2.

[7] = in combination with 5-FU, paired with 5-FU conc. of the same table row
[8] = in combination with Paclitaxel, paired with Paclitaxel conc. of the same table row
[9] = in combination with Cisplatin, paired with Cisplatin conc. of the same table row

B1: SEQ ID NO: 1: recombinant lectin protein, variant of the S. rolfsii lectin amino acid sequence (reported as Rec-2 in WO 2010/095143) (protein)
chain: TYKITVRVYQTNPDAFFHPVEKTVWKYANGGTWTITDDQHVLTMGGSGTSGTLRFHADNGESFTATFGVHNYKRWCDIVTNLAADETGMVINQQYYSQKNREEARERQLSNYQVKNAKGRNFQIVYTEAEGNDLHANLIIG
IC50 of SEQ ID NO: 1 ([1]; 5-FU 0 μM): 24.630 µg/mL
IC50 of SEQ ID NO: 1 ([1]; 5-FU 0.1 μM): 686.900 µg/mL
IC50 of SEQ ID NO: 1 ([1]; 5-FU 1 μM): 22.490 µg/mL
IC50 of SEQ ID NO: 1 ([1]; 5-FU 10 μM): 6.842 µg/mL
IC50 of SEQ ID NO: 1 ([1]; 5-FU 50 μM): 1.690 µg/mL
IC50 of SEQ ID NO: 1 ([1]; 5-FU 100 μM): 1.070 µg/mL
IC50 of SEQ ID NO: 1 ([1]; 5-FU […] μM): 0.098 µg/mL
IC50 of SEQ ID NO: 1 ([1]; Gemcitabine 0 μM): 25.060 µg/mL
IC50 of SEQ ID NO: 1 ([1]; Gemcitabine 0.01 μM): 55.490 µg/mL
IC50 of SEQ ID NO: 1 ([1]; Gemcitabine 0.1 μM): 19.450 µg/mL
IC50 of SEQ ID NO: 1 ([1]; Gemcitabine 1 μM): 14.130 µg/mL
IC50 of SEQ ID NO: 1 ([1]; Gemcitabine 5 μM): 12.230 µg/mL
IC50 of SEQ ID NO: 1 ([1]; Gemcitabine 25 μM): 2.044 µg/mL
IC50 of SEQ ID NO: 1 ([1]; Gemcitabine 50 μM): 0.917 µg/mL
Conc. of SEQ ID NO: 1 showing synergistic effect [1, 7]: 5 µg/mL and 10 to 80 µg/mL
IC50 of SEQ ID NO: 1 ([2]; Carboplatin 0 μM): 14.310 µg/mL
IC50 of SEQ ID NO: 1 ([2]; Carboplatin 10 μM): 7.188 µg/mL
IC50 of SEQ ID NO: 1 ([2]; Carboplatin 50 μM): 3.584 µg/mL
IC50 of SEQ ID NO: 1 ([2]; Carboplatin 100 μM): 4.290 µg/mL
IC50 of SEQ ID NO: 1 ([2]; Carboplatin 200 μM): 2.073 µg/mL
IC50 of SEQ ID NO: 1 ([2]; Carboplatin 500 μM): 0.523 µg/mL
IC50 of SEQ ID NO: 1 ([2]; Carboplatin 1000 μM): 0.044 µg/mL
IC50 of SEQ ID NO: 1 ([2]; Paclitaxel 0 nM): 19.800 µg/mL
IC50 of SEQ ID NO: 1 ([2]; Paclitaxel 0.001 nM): 25.370 µg/mL
IC50 of SEQ ID NO: 1 ([2]; Paclitaxel 0.01 nM): 21.220 µg/mL
IC50 of SEQ ID NO: 1 ([2]; Paclitaxel 0.1 nM): 13.700 µg/mL
IC50 of SEQ ID NO: 1 ([2]; Paclitaxel 1 nM): 8.720 µg/mL
IC50 of SEQ ID NO: 1 ([2]; Paclitaxel 5 nM): 5.775 µg/mL
IC50 of SEQ ID NO: 1 ([2]; Paclitaxel 10 nM): 2.248 µg/mL
Conc. of SEQ ID NO: 1 showing synergistic effect ([2]; in combination with Carboplatin, paired with Carboplatin conc. of the same table row): 5 to 80 µg/mL and 2.5 µg/mL
Conc. of SEQ ID NO: 1 showing synergistic effect [2, 8]: 20 to 80 µg/mL and 10 µg/mL
IC50 of SEQ ID NO: 1 ([3]; 5-FU 0 μM): 17.3800 µg/mL
IC50 of SEQ ID NO: 1 ([3]; 5-FU 0.01 μM): 0.5800 µg/mL
IC50 of SEQ ID NO: 1 ([3]; 5-FU 0.1 μM): 0.9080 µg/mL
IC50 of SEQ ID NO: 1 ([3]; 5-FU 0.5 μM): 0.1141 µg/mL
IC50 of SEQ ID NO: 1 ([3]; 5-FU 1 μM): 0.0555 µg/mL
IC50 of SEQ ID NO: 1 ([3]; 5-FU 5 μM): 0.0871 µg/mL
IC50 of SEQ ID NO: 1 ([3]; 5-FU […]): 0.5010 µg/mL
IC50 of SEQ ID NO: 1 ([3]; Cisplatin 0 μM): 38.110 µg/mL
IC50 of SEQ ID NO: 1 ([3]; Cisplatin 0.1 μM): 21.190 µg/mL
IC50 of SEQ ID NO: 1 ([3]; Cisplatin 0.5 μM): 2.694 µg/mL
IC50 of SEQ ID NO: 1 ([3]; Cisplatin 0.75 μM): 0.597 µg/mL
IC50 of SEQ ID NO: 1 ([3]; Cisplatin 1.0 μM): 0.316 µg/mL
IC50 of SEQ ID NO: 1 ([3]; Cisplatin 1.5 μM): 0.303 µg/mL
IC50 of SEQ ID NO: 1 ([3]; Cisplatin […]): 11.240 µg/mL
Conc. of SEQ ID NO: 1 showing synergistic effect [3, 7]: 5 to 90 µg/mL
Conc. of SEQ ID NO: 1 showing synergistic effect [3, 9]: 10 to 90 µg/mL and 5 µg/mL
IC50 of SEQ ID NO: 1 ([4]; 5-FU 0 μM): 25.470 µg/mL
IC50 of SEQ ID NO: 1 ([4]; 5-FU 5 μM): 22.990 µg/mL
IC50 of SEQ ID NO: 1 ([4]; 5-FU 10 μM): 6.374 µg/mL
IC50 of SEQ ID NO: 1 ([4]; 5-FU 50 μM): 1.667 µg/mL
IC50 of SEQ ID NO: 1 ([4]; 5-FU 100 μM): 1.387 µg/mL
IC50 of SEQ ID NO: 1 ([4]; 5-FU 150 μM): 1.216 µg/mL
IC50 of SEQ ID NO: 1 ([4]; 5-FU 200 μM): 1.334 µg/mL
IC50 of SEQ ID NO: 1 ([4]; Irinotecan 0 μM): 18.320 µg/mL
IC50 of SEQ ID NO: 1 ([4]; Irinotecan 0.1 μM): 73.480 µg/mL
IC50 of SEQ ID NO: 1 ([4]; Irinotecan 1 μM): 36.280 µg/mL
IC50 of SEQ ID NO: 1 ([4]; Irinotecan 5 μM): 23.520 µg/mL
IC50 of SEQ ID NO: 1 ([4]; Irinotecan 10 μM): 9.995 µg/mL
IC50 of SEQ ID NO: 1 ([4]; Irinotecan 25 μM): 8.258 µg/mL
IC50 of SEQ ID NO: 1 ([4]; Irinotecan 50 μM): 1.395 µg/mL
Conc. of SEQ ID NO: 1 showing synergistic effect ([4]; in combination with Irinotecan, paired with Irinotecan conc. of the same table row): 40 to 80 µg/mL and 20 µg/mL
IC50 of SEQ ID NO: 1 ([5]; Cisplatin 0 μM): 12.070 µg/mL
IC50 of SEQ ID NO: 1 ([5]; Cisplatin 0.01 μM): 8.520 µg/mL
IC50 of SEQ ID NO: 1 ([5]; Cisplatin 0.1 μM): 6.033 µg/mL
IC50 of SEQ ID NO: 1 ([5]; Cisplatin 0.5 μM): 0.912 µg/mL
IC50 of SEQ ID NO: 1 ([5]; Cisplatin 1 μM): 0.321 µg/mL
IC50 of SEQ ID NO: 1 ([5]; Cisplatin 5 μM): 0.0036 µg/mL
IC50 of SEQ ID NO: 1 ([5]; Cisplatin […]): 4.455 µg/mL
IC50 of SEQ ID NO: 1 ([5]; Paclitaxel 0 nM): 8.822 µg/mL
IC50 of SEQ ID NO: 1 ([5]; Paclitaxel 0.01 nM): 5.794 µg/mL
IC50 of SEQ ID NO: 1 ([5]; Paclitaxel 0.1 nM): 6.545 µg/mL
IC50 of SEQ ID NO: 1 ([5]; Paclitaxel 0.5 nM): 3.917 µg/mL
IC50 of SEQ ID NO: 1 ([5]; Paclitaxel 1 nM): 3.031 µg/mL
IC50 of SEQ ID NO: 1 ([5]; Paclitaxel 5 nM): 0.709 µg/mL
IC50 of SEQ ID NO: 1 ([5]; Paclitaxel […]): 4.893 µg/mL
Conc. of SEQ ID NO: 1 showing synergistic effect [5, 8]: 1 to 20 µg/mL
IC50 of SEQ ID NO: 1 ([6]; Cisplatin 0 μM): 11.470 µg/mL
IC50 of SEQ ID NO: 1 ([6]; Cisplatin 1 μM): 11.460 µg/mL
IC50 of SEQ ID NO: 1 ([6]; Cisplatin 10 μM): 2.375 µg/mL
IC50 of SEQ ID NO: 1 ([6]; Cisplatin 25 μM): 1.062 µg/mL
IC50 of SEQ ID NO: 1 ([6]; Cisplatin 50 μM): 1.081 µg/mL
IC50 of SEQ ID NO: 1 ([6]; Cisplatin 100 μM): 0.944 µg/mL
IC50 of SEQ ID NO: 1 ([6]; Cisplatin 500 μM): 0.716 µg/mL
IC50 of SEQ ID NO: 1 ([6]; Gemcitabine 0 μM): 10.350 µg/mL
IC50 of SEQ ID NO: 1 ([6]; Gemcitabine 1 μM): 2.242 µg/mL
IC50 of SEQ ID NO: 1 ([6]; Gemcitabine 10 μM): 0.892 µg/mL
IC50 of SEQ ID NO: 1 ([6]; Gemcitabine 50 μM): 0.626 µg/mL
IC50 of SEQ ID NO: 1 ([6]; Gemcitabine 100 μM): 0.155 µg/mL
IC50 of SEQ ID NO: 1 ([6]; Gemcitabine 200 μM): 0.149 µg/mL
IC50 of SEQ ID NO: 1 ([6]; Gemcitabine 300 μM): 0.029 µg/mL
Conc. of SEQ ID NO: 1 showing synergistic effect [6, 9]: 5 to 80 µg/mL
Conc. of SEQ ID NO: 1 showing synergistic effect ([6]; in combination with Gemcitabine, paired with Gemcitabine conc. of the same table row): 2.5 to 80 µg/mL
